In general, Kd refers to a measure of binding affinity in units of concentration.

Where no end group is shown, it is not given here. Side-chain parts run from the residue outwards. 4‑arm PEG 10 kDa = 10 kDa 4-armed polyethylene glycol

Results on two molecules are retold here after patent US20250345387A1, “CORONAVIRUS THERAPEUTICS AND TREATMENT METHODS” (priority 2020, published 2025).

In assay [1] the target is T1, recombinant mouse Tie2Fc (mouse, UniProt Q02858 23-743).
T1 chain: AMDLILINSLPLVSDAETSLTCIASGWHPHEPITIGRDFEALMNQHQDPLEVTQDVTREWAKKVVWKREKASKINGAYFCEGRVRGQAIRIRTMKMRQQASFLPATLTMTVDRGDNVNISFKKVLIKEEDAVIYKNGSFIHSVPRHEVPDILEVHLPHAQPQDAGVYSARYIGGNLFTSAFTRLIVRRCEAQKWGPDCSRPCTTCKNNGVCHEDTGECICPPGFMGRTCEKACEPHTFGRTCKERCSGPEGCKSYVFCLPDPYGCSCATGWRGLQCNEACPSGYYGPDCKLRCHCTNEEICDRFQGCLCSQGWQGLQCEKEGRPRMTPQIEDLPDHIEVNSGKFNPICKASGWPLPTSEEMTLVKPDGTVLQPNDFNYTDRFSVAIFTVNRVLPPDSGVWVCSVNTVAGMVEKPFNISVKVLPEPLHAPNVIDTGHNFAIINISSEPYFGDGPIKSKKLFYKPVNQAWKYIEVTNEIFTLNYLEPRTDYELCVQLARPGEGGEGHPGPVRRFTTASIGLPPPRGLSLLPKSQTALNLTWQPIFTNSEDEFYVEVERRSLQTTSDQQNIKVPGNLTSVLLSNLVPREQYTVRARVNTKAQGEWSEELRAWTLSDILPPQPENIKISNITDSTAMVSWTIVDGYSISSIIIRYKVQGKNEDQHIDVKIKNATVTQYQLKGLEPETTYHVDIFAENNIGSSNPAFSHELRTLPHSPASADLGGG
Put plainly: tryptophan fluorescence spectroscopy.

Assay [2] has as its target human Tie2 receptor on human endothelial cells (HUVEC, HMVECtert) (human, UniProt Q02763 23-1124). Put plainly: cell-based or functional assay.
In assay [3] the target is T2, recombinant human Tie2Fc (human, UniProt Q02763 23-745).
T2 construct: Bought from R&D Systems; not shown: human IgG Fc
Description: tryptophan fluorescence spectroscopy in solution, non-linear regression one site specific binding. The source says:
The specific signal was derived by subtraction of the fluorescence intensity generated by ligand alone from the receptor and ligand complex.
Ligand and receptor interaction. […] Data was compiled using SoftMax and analyzed using Prism.

Assay [4] addresses T3, recombinant cynomolgus monkey Tie2-FC (Macaca fascicularis, UniProt G7PS68 23-748).
T3 chain: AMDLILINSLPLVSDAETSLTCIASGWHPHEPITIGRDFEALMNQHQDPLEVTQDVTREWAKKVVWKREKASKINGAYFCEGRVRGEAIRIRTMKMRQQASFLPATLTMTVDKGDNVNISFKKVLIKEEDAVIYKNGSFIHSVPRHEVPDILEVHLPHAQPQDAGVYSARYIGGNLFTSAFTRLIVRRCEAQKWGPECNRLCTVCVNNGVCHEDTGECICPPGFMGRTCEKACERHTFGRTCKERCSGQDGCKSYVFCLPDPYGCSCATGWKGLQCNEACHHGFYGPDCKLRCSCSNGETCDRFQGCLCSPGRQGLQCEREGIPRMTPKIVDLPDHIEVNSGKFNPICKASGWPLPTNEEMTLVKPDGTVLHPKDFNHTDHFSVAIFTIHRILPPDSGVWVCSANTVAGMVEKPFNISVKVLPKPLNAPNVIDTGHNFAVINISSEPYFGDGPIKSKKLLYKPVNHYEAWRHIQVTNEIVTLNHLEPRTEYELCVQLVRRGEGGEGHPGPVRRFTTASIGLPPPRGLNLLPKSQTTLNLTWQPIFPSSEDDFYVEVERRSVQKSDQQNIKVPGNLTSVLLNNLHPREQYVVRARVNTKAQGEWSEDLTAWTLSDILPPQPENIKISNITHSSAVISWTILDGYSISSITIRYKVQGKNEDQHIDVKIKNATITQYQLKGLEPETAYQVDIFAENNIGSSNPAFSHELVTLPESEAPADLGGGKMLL
Description: tryptophan fluorescence spectroscopy.

In assay [5] the target is T4, recombinant rat Tie2-FC (Rattus norvegicus, UniProt A0ABK0L6J5 19-740).
T4 chain: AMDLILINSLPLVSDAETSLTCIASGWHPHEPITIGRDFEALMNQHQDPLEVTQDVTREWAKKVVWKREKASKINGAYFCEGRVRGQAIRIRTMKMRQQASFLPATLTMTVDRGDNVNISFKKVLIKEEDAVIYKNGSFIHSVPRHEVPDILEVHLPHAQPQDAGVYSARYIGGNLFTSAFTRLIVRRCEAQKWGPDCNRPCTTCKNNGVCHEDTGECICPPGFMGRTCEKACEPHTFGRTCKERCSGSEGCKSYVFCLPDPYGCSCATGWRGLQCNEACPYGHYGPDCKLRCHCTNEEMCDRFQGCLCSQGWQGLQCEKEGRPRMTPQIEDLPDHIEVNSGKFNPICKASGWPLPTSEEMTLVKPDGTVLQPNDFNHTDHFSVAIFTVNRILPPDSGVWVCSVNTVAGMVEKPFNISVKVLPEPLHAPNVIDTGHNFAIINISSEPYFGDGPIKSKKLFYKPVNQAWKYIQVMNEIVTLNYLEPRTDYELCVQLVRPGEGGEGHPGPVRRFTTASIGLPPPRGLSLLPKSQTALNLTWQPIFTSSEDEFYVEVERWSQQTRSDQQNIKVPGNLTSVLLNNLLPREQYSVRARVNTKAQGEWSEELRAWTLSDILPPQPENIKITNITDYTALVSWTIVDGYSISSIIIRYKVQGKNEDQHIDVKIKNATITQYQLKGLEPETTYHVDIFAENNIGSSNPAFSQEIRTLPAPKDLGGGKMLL
Put plainly: tryptophan fluorescence spectroscopy.

B1: parental Vasculotide (peptide)
peptide: C([maleimide-4‑arm PEG 10 kDa])HHHRHSF
modifications: also: tetramer: four copies on 4-armed 10 kDa PEG, mixture of succinimide and thiazine ring products
notes: Manufactured by Bachem; also called VT; parental VT
As to B1, the dissociation constant (Kd) in assay [1] was found to be 35 nM.

B2: MPA-Br (peptide)
peptide: HHHRHSF-OH
modifications: not fully specified (N-terminus); also: tetramer: four copies on (bromoacetimide)4-PEG10K
notes: Mpa is not an amino acid; also called mBr; AV-001
Take B2: the “relative magnitude of Tie2 activation in HMVECtert” value in assay [2] was ~3.3 fold. Moreover, the Kd was found to be 2.62 nM in assay [3], 0.0229 nM in assay [4], 6.82 nM in assay [1] and 4.21 nM in assay [5].
